The supplement of paper PMC10567573

B1: INTS4 (parent)
chain: YSSGEFSSGRKWGDDAPKEEVDTG

Variants of: B1
Assay: protein stability index of a GFP-peptide fusion (GPS, HEK-293T) (PSI 1-6); higher = more stable
Settings: c terminus: a fixed tail appended
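Further: lentivirally expressed fusions sorted by FACS into six bins by GFP to DsRed ratio, PSI derived from sequencing read proportions per bin multiplied by bin number.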

Variant	protein stability index
E20M	2.31
E20K	1.91
E20N	2.35
E20Y	3.19
E20A	2.3
E20H	2.63
E20P	2.42
E20V	2.37
E20W	1.97
E20S	1.91
E20D	2.49
E20C	2.5
E20I	2.43
E20L	1.89
E20F	2.42
E20Q	2.6
E20T	2.38
E20G	2.17
E20R	2.28
R10N	2.63
R10A	2.35
R10I	2.13
R10M	1.52
R10F	1.74

Variant	protein stability index
R10V	2.5
R10S	3.19
R10D	3.93
R10H	2.85
R10T	2.8
R10C	2.47
R10Y	2.41
R10Q	1.98
R10L	2
R10K	2.81
R10P	2.3
R10E	3.65
R10W	1.65
R10G	2.93
S7C	2.32
S7N	3.3
S7E	4.21
S7T	3.02
S7A	1.91
S7Q	2.69
S7L	2.43
S7V	2.27
S7K	3.45
S7P	1.67

Variant	protein stability index
S7I	1.96
S7H	1.92
S7D	3.83
S7Y	2.52
S7G	2.75
S7R	1.8
S7M	2.17
S7F	2.98
D14S	2.19
D14Y	2.48
D14N	2.59
D14M	1.94
D14F	2.59
D14C	1.79
D14P	2.04
D14I	1.54
D14L	1.98
D14W	2.2
D14Q	1.41
D14E	2.32
D14K	1.71
D14R	2.02
D14V	2.01
D14A	2.54

Variant	protein stability index
D14H	2.73
D14T	1.94
D14G	1.22
A16V	2.42
A16L	2.48
A16M	2.52
A16W	2.01
A16K	2.19
A16Q	2.71
A16E	2.99
A16N	2.09
A16S	2.63
A16T	2.28
A16Y	2.56
A16C	2.71
A16P	2.32
A16F	2.3
A16R	2.71
A16G	2.16
A16I	2.28
A16H	1.92
A16D	2.95
F6A	4.88
F6H	4.96

Variant	protein stability index
F6T	4.79
F6C	5.11
F6N	5.22
F6L	4.24
F6Q	4.96
F6Y	4.13
F6I	4.67
F6G	4.57
F6M	4.69
F6S	5.16
F6P	5.56
F6K	4.65
F6V	4.99
F6D	5.75
F6R	4.63
D22T	2.34
D22F	3.28
D22L	2.27
D22P	2.38
D22G	2.35
D22E	2.72
D22Q	2.71
D22C	2.67
D22Y	2.02

Variant	protein stability index
D22V	1.86
D22A	2.06
D22N	2.74
D22S	2.17
D22I	2.66
D22R	2.73
D22H	2.48
D22M	1.63
D22K	1.65
D22W	1.64
K11N	3.21
K11Q	2.83
K11C	1.93
K11T	2.31
K11D	2.73
K11Y	3.31
K11R	1.97
K11G	2.98
K11I	1.78
K11W	1.94
K11F	1.9
K11P	2.08
K11V	2.39
K11E	3.25

Variant	protein stability index
K11S	3.02
K11M	2.62
K11H	2.45
K11A	2.7
K11L	1.91
W12G	3.11
W12Y	2.57
W12H	3.29
W12N	3.3
W12R	2.86
W12K	2.94
W12A	3.22
W12P	2.92
W12M	2.85
W12T	3.08
W12S	4.44
W12D	3.21
W12C	2.7
W12F	2.96
W12V	3.08
W12Q	3.17
W12I	3.2
W12E	3.84
W12L	3.24

Variant	protein stability index
K18G	3.44
K18W	2.88
K18E	3.84
K18T	2.56
K18Q	2.92
K18N	2.96
K18V	2.81
K18C	2.62
K18H	2.83
K18P	3.08
K18L	2.49
K18S	3.16
K18R	3.13
K18F	4.04
K18I	2.73
K18A	3.05
K18M	2.82
K18D	3.16
K18Y	2.62
S8H	2.25
S8P	3.25
S8T	2.48
S8M	1.6
S8R	2.24

Variant	protein stability index
S8A	2.75
S8K	2.19
S8C	1.97
S8I	1.94
S8D	3.79
S8Q	1.89
S8Y	2.59
S8G	3.83
S8E	3.56
S8V	1.57
S8L	3.21
S8F	2.48
S8N	2.68
E5N	3.27
E5R	2.15
E5V	1.32
E5Q	2.14
E5P	2.95
E5I	1.97
E5Y	1.04
E5T	3.55
E5M	2.68
E5G	2.78
E5H	2.16

Variant	protein stability index
E5K	2.22
E5S	3.07
E5L	2.11
V21W	1.82
V21M	2.78
V21Y	2.74
V21D	2.92
V21E	2.84
V21N	2.81
V21C	3.39
V21F	2.58
V21G	2.94
V21I	2.27
V21K	2.8
V21T	3.31
V21Q	2.73
V21S	2.54
V21R	2.83
V21P	3.13
V21L	2.28
V21H	2.74
D15V	1.78
D15A	1.78
D15T	2.28

Variant	protein stability index
D15S	2.54
D15Y	2.01
D15R	1.92
D15I	1.11
D15Q	2.12
D15L	2.04
D15P	1.96
D15M	1.78
D15K	2.18
D15E	3.12
D15F	3.02
D15H	1.81
D15G	2.07
D15N	2.34
D15W	1.69
D15C	2.5
P17Y	1.99
P17T	2.96
P17S	3.25
P17K	2.31
P17C	2.64
P17D	3.06
P17L	2.57
P17R	2.01

Variant	protein stability index
P17I	2.44
P17F	2.45
P17H	1.47
P17G	2.09
P17Q	2.35
P17V	2.74
P17N	2.87
P17W	2.9
P17A	2.84
P17M	2.39
P17E	2.8
T23C	2.95
T23A	2.35
T23D	2.96
G9R	2.32
G9M	1.83
G9Q	2.35
G9Y	2.44
G9H	2.43
G9I	1.84
G9P	2.27
G9K	1.28
G9A	1.91
G9V	3.12

Variant	protein stability index
G9F	2.48
G9E	2.76
G9D	3.6
G9T	2.3
G9C	1.75
G9S	2.63
G9L	2.49
G9N	2.59
G9W	1.43
G13Q	3.38
G13F	2.65
G13R	2.15
G13Y	2.81
G13S	2.94
G13L	2.35
G13V	2.47
G13W	2.44
G13C	2.65
G13I	2.48
G13M	2.45
G13D	2.5
G13K	2.5
G13T	2.5
G13P	2.6

Variant	protein stability index
G13A	2.65
G13H	3.66
G13N	3.13
G13E	3.02
E19F	2.97
E19I	2.32
E19A	2.67
E19T	2.72
E19N	2.52
E19K	2
E19M	2.93
E19D	2.74
E19C	2.37
E19S	2.26
E19H	2.09
E19L	1.94
E19Q	2.95
E19Y	1.74
E19P	2.3
E19V	1.84
E19R	1.75
E19G	2.48
